Laboratory results taken from US10876098B2, “Polynucleotide, host cell and a method to recombinantly produce the protein encoded by said polynucleotide having peroxygenative activity” (CONSEJO SUPERIOR DE INVESTIGACIONES CIENTIFICAS (CSIC), priority 2015, dated 2020).
Where a chain is given by its changes, count along the chain named. Numbers in names are those of the source.

Key:
[1] = target: T1, Agrocybe aegerita peroxygenase AaeUPO1 variant JaWa (PaDa-I + G241D, R257K: V57A, L67F, V75I, G241D, I248V, R257K, F311L), SEQ ID NO: 24 (Cyclocybe aegerita, UniProt B9W4V6, F354L/G284D/I291V/L110F/R300K/V100A/V118I); assay: Kinetic constants, JaWa variant
T1 sequence (B9W4V6 44-371 V100A/L110F/V118I/G284D/I291V/R300K/F354L): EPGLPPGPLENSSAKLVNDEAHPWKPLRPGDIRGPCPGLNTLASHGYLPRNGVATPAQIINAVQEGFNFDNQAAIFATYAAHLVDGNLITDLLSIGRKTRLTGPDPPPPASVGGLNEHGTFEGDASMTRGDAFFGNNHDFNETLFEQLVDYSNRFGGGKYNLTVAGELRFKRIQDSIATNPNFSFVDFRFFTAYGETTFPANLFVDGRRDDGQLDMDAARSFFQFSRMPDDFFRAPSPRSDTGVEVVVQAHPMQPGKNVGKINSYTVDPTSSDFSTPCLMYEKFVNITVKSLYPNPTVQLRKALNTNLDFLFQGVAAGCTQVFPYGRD
Method: In order to calculate the values of Km and kcat, values of Vmax were represented at substrate concentrations and the hyperbole function was adjusted (using SigmaPlot 10.0, wherein the parameter a is equal to kcat and the parameter b, to Km).
Additionally, the kinetic values of the two variants were determined using substrates of both peroxygenase and peroxidase activity (Table 2), as described in the section on materials and methods.

Optimum pH for DMP = type: biochemical
[2] = Optimum pH for naphthalene; type: biochemical
[3] = Naphthalene transformation reaction analysed by HPLC-PDA; type: biochemical
Method: A) Products formed after 15 minutes of reaction stopped with 20 μL of HCl 37% (PaDa-I, black bars; JaWa, grey bars). […] C) and D) Monitoring of the reaction for 270 minutes (without adding HCl) for the PaDa-I (C) and JaWa (D) mutants.
The reactions were analysed by means of chromatography in reverse phase (HPLC). The equipment is composed by a tertiary pump (Varian-Agilent Technologies, USA) coupled to an autosampler (Merck Millipore, MA, USA); an ACE C18 PFP column was used for separation (pentafluorophenyl, 15 cm×4.6 cm) at 45° C. and detection was performed using a photodiode detector (PDA) (Varian-Agilent Technologies, USA). The mobile phase selected was 70% methanol and 30% ddH2O (in both cases with 0.1% of acetic acid) at a flow rate of 0.8 mL/min. The reaction was quantified at 268 nm (based on standard HPLCs). […] For long reaction times, the conditions used were those described earlier but without stopping the reaction with HCl. A sample of 10 μL was injected and analysed at different reaction times (from 1 to 270 minutes).

Optimum pH for ABTS = type: biochemical
[4] = Thermostability assay (T50), culture supernatants, residual activity with ABTS; type: physicochemical; settings: culture supernatants; temperature at which the enzyme retains 50% of its activity after 10 minutes of incubation
Method: An individual S. cerevisiae colony was selected with the corresponding clone (grown in a SC drop-out minimal medium plate: 100 mL of 6.7% yeast nitrogen base, 100 mL of 19.2 g/L uracil-free amino acid supplement, 100 mL of 20% glucose, 1 mL of 25 g/L chloramphenicol and ddH2O up to 1,000 mL) was inoculated in 2 mL of selective minimal medium (as in the SC plate medium, but with 20 g of bacto agar and rafinose instead of galactose) and was incubated for 48 hour at 30° C. and 220 RPM. An aliquot of this culture was taken such that, upon inoculating it in 5 mL of new minimal medium, optical density at 600 nm would have a value of 0.25 (optical density, OD600=0.25). This starter was incubated until completing two full growth cycles (between 6 and 8 hours), at which time 1 mL of cells were taken to inoculate 9 mL of expression medium in a 100 mL flask (OD600=0.1). This culture of each clone was incubated for 72 hours at 25° C. and 220 RPM (at peak UPO activity; OD600=25-30), the cells were separated by centrifugation (10 minutes at 4,500 RPM and 4° C.) and supernatant was filtered (using a glass and nitrocellulose filter with a pore size of 0.45 μm). Appropriate dilutions of the supernatants were prepared so that aliquots of 20 μL would give rise to a linear response in kinetic mode. 50 μL of supernatant were used for each point in a temperature gradient created by means of thermocyclator, from 30 to 80° C. After incubating for 10 minutes, the aliquots were cooled in ice for 10 minute and tempered at room temperature for 5 minutes. […] The thermostability values were calculated in accordance with the ratio between the residual activities incubated at different temperatures and the value of initial activity at room temperature. The value of T50 was determined as the value of the temperature at which the protein loses 50% of it initial activity after incubating for 10 minutes.
An individual S. cerevisiae colony was selected with the corresponding clone (grown on a SC drop-out minimal medium plate: 100 mL of 6.7% yeast nitrogen base, 100 mL of 19.2 g/L uracil-free amino acid supplement, 100 mL of 20% glucose, 1 mL of 25 g/L chloramphenicol and ddH2O up to 1,000 mL), was inoculated in 3 mL of selective minimal medium (like the SC plate medium, but with 20 g of bacto agar and rafinose instead of galactose) and incubated for 48 hours at 30° C. and 220 RPM. […] The thermostability values were calculated in accordance with the ratio between the residual activities incubated at different temperatures and the value of initial activity at room temperature. The value of T50 was determined as as the temperature value at which the protein loses 50% of its initial activity after incubating for […].

[5] = Isoelectric point by two-dimensional electrophoresis; type: physicochemical
Method: The analyses were performed using an Autoflex III MALDI-TOF-TOF unit with smartbeam laser (Bruker Daltonics). The samples were evaluated in positive mode. The method was calibrated using BSA with standard, thereby covering a range of 15,000 to 70,000 Da. In order to determine the isoelectric point of the UPO variants, 8 μg of pure enzyme were subjected to two-dimensional electrophoresis. These experiments were carried out at the Proteomic and Genomic Service of the Biological Research Centre (CIB-CSIC, Spain).

[6] = Turnover with 5′-hydroxypropranolol as substrate, HPLC; type: biochemical; settings: 0.03 μM enzyme, 0.4 mM 5′-hydroxypropranolol, 2 mM H2O2, absence of ascorbic acid
Method: FIG. 14 Turnover rates of AaeUPO, JaWa and SoLo. […] The disappearance of the product 5′-hydroxypropranolol can be observed due to the formation of its corresponding quinone by means of the peroxidase activity of the enzyme.
(§1) The reactions were analysed by means of chromatography in reverse phase (HPLC). The equipment was composed of a tertiary pump (Varian-Agilent Technologies, USA) coupled to an autosampler (Merck Millipore, MA, USA); for the separation, a Zorbax Eclipse plus C18 column (15 cm×4.6 cm) at 40° C. was used and the detection was performed using a photodiode detector (PDA) (Varian, Agilent Technologies, USA). The mobile phase selected was a gradient from 10% methanol and 90% ddH2O (in both cases with 0.1% of acetic acid) up to 90% methanol and 10% ddH2O at a flow rate of 0.8 mL/min. The reaction was quantified at 280 nm (based on HPLC standards). […] The standard deviations were less than 5% in all cases.

[7] = Total turnover number (TTN) for synthesis of 5′-hydroxypropranolol from propranolol; type: biochemical; settings: 0.03 μM enzyme, propranolol, 2 mM H2O2 added every 10 minutes
Method: FIG. 15 Calculation of the total turnover number (TTN) of AaeUPO and SoLo.
as §1

[8] = substrate: CCn1c(=NN=c2sc3cc(S(=O)(=O)O)ccc3n2CC)sc2cc(S(=O)(=O)O)ccc21; assay: purified protein, by the assay type; settings: other: 100 mM sodium phosphate/citrate pH 4.0, 2 mM H2O2 (ABTS); pH 4.0
[9] = substrate: CC(C)NCC(O)COc1cccc2ccccc12; assay: purified protein, by the assay type
[10] = substrate: OO; assay: purified protein, by the assay type; settings: other: H2O2, benzyl alcohol as substrate at saturation, pH 7.0
[11] = 15 minutes of reaction stopped with HCl, 6.6 nM enzyme, 1 mM naphthalene, 1 mM H2O2
[12] = other: 100 mM potassium phosphate pH 7.0, 2 mM H2O2 (propranolol)
[13] = other: 100 mM potassium phosphate pH 7.0, 2 mM H2O2 (DMP, propranolol)

CC(C)NCC(O)COc1cccc2c(O)cccc12 (stereo not drawn) [5′-hydroxypropranolol]
increase in kcat (up to) ([1]; summary of advantages, variant not named, matches JaWa vs PaDa-I): up to 3.6 fold

OO [H2O2, hydrogen peroxide]
Km ([1]; H2O2, benzyl alcohol as substrate at saturation, pH 7.0): 1250 µM

c1ccc2ccccc2c1 [Naphthalene, naphthalene]
decrease in Km ([1]; JaWa vs PaDa-I, naphthalene): 3 times

B1: PaDa-I: AaeUPO1 mutant with L67F, I248V, F311L, V75I, V57A and evolved signal peptide, SEQ ID NO: 18; previously published parental (protein)
chain: MKYFPLFPTLVYAVGVVAFPDYASLAGLSQQELDAIIPTLEAREPGLPPGPLENSSAKLVNDEAHPWKPLRPGDIRGPCPGLNTLASHGYLPRNGVATPAQIINAVQEGFNFDNQAAIFATYAAHLVDGNLITDLLSIGRKTRLTGPDPPPPASVGGLNEHGTFEGDASMTRGDAFFGNNHDFNETLFEQLVDYSNRFGGGKYNLTVAGELRFKRIQDSIATNPNFSFVDFRFFTAYGETTFPANLFVDGRRDDGQLDMDAARSFFQFSRMPDDFFRAPSPRSGTGVEVVVQAHPMQPGRNVGKINSYTVDPTSSDFSTPCLMYEKFVNITVKSLYPNPTVQLRKALNTNLDFLFQGVAAGCTQVFPYGRD
Optimum pH for DMP (Optimum pH for DMP): 6.0 | Optimum pH for naphthalene [2]: 6.0 | regioselectivity, 1-naphthol [3, 11]: 92% | regioselectivity, 2-naphthol [3, 11]: 8% | time at which formation of the epoxide intermediary reached its maximum ([3]; 270 minute reaction at pH 7.0): ~40 min | production of 1-naphthol ([3]; 270 minutes at pH 7.0 without stopping the reaction): 0.14 mM | total turnover numbers (TTN), 1-naphthol ([3]; calculated using the production value of 1-naphthol after 270 minutes): 20,000 μmoles of product/μmoles of en | regioselectivity against 1-naphthol ([3]; long reaction times, 270 minutes at pH 7.0 without stopping the reaction): 97% | Optimum pH for ABTS (Optimum pH for ABTS): 4.0 | Thermal stability, T50 [4]: 57.6 °C | pI [5]: 5.5

B2: AaeUPO1: unspecific peroxygenase UPO (E.C. 1.11.2.1) of Agrocybe aegerita, wild type, SEQ ID NO: 2 / 4 (protein, listed as Agrocybe aegerita)
chain: B1 chain with A100V, F110L, I118V, V291I, L354F
Optimum pH for DMP (Optimum pH for DMP): 7.0 | Optimum pH for naphthalene [2]: 6.5 | Optimum pH for ABTS (Optimum pH for ABTS): 4.0 | pI [5]: 4.9-5.7 | 5′-hydroxypropranolol maintained without oxidising [6]: oxidise practically the entire product | TTNs, With ascorbic acid ([7]; 4 mM ascorbic acid): 14,000 | TTNs, Without ascorbic acid ([7]; absence of ascorbic acid): 3,000

B3: Agrocybe aegerita unspecific peroxygenase AaeUPO1 (UPO, EC 1.11.2.1), wild type, SEQ ID NO: 2 (SEQ ID NO: 4 with wild-type signal peptide) (Cyclocybe aegerita) (protein)
chain: T1 sequence (B9W4V6 44-371 V100A/L110F/V118I/G284D/I291V/R300K/F354L) with A57V, F67L, I75V, D241G, V248I, K257R, L311F
Km [8]: 25-0 ± 2.5 μM | kcat [8]: 221 s⁻¹ | kcat/Km [8]: 8.8e+06 M⁻¹ s⁻¹ | Km [9, 12]: 2,239 ± 333 μM | kcat [9, 12]: 150 ± 12 s⁻¹ | kcat/Km [9, 12]: 67000 ± 4800 M⁻¹ s⁻¹ | Km [10]: 1,370 ± 162 μM | kcat [10]: 290 s⁻¹ | kcat/Km [10]: 210000 M⁻¹ s⁻¹

B4: Agrocybe aegerita peroxygenase AaeUPO1 variant SoLo (JaWa + F191S: V57A, L67F, V75I, F191S, G241D, I248V, R257K, F311L), SEQ ID NO: 42 (Cyclocybe aegerita; … (protein)
chain: T1 sequence (B9W4V6 44-371 V100A/L110F/V118I/G284D/I291V/R300K/F354L) with F191S
Km [9, 12]: 391 ± 97 µM | kcat [9, 12]: 497 ± 35 s⁻¹ | kcat/Km [9, 12]: 1.3e+06 ± 20000 M⁻¹ s⁻¹ | Km [10]: 1,430 ± 153 μM | kcat [10]: 446 s⁻¹ | kcat/Km [10]: 310000 ± 18000 M⁻¹ s⁻¹

B5: Agrocybe aegerita peroxygenase AaeUPO1 variant JaWa (PaDa-I + G241D, R257K: V57A, L67F, V75I, G241D, I248V, R257K, F311L), SEQ ID NO: 24 (Cyclocybe aegerita; … (protein)
chain: T1 sequence (B9W4V6 44-371 V100A/L110F/V118I/G284D/I291V/R300K/F354L)
Km [9, 13]: 244 ± 92 µM | kcat [9, 13]: 765 ± 76 s⁻¹ | kcat/Km [9, 13]: 3.1e+06 ± 90000 M⁻¹ s⁻¹
